Reference: patent US20210371536A1 (SEOUL NATIONAL UNIVERSITY R AND DB FOUNDATION, published 2021)
Each block holds one binder with its values, some of them ahead of it.

Key:
[1] = target: hPDGFR-β on human pericyte cells (human, UniProt P09619 33-1106); experiment: cell-based or functional assay
[2] = target: T1, cynomolgus monkey PDGFR-β (Fc chimera) (cynomolgus monkey); experiment: cross-species ELISA on coated antigen, 100 nM bispecific, HRP-anti-human Cκ detection
T1 construct: not shown: human Fc (hFc) and its junction to the receptor part
T1 chain: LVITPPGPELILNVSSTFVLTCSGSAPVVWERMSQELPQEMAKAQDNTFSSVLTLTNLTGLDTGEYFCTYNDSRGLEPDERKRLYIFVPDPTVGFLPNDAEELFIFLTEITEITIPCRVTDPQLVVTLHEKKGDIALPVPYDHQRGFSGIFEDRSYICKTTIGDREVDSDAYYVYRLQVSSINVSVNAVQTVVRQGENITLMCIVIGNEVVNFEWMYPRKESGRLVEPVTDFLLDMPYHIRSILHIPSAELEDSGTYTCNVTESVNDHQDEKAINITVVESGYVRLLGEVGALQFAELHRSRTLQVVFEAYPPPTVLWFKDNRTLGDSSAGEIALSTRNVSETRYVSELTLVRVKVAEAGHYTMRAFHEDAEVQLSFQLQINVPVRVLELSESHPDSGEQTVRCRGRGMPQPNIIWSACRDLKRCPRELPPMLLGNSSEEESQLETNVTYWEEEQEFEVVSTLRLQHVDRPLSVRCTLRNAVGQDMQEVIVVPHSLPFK

[3] = target: T2, Sus scrofa PDGFR-β-Fc chimera (Sus scrofa, UniProt Q6QNF3 33-530 (dog entry)); experiment: as above
T2 construct: also called Sus crowfa PDGFR-β; not shown: human Fc (hFc) and its junction to the receptor part
T2 chain: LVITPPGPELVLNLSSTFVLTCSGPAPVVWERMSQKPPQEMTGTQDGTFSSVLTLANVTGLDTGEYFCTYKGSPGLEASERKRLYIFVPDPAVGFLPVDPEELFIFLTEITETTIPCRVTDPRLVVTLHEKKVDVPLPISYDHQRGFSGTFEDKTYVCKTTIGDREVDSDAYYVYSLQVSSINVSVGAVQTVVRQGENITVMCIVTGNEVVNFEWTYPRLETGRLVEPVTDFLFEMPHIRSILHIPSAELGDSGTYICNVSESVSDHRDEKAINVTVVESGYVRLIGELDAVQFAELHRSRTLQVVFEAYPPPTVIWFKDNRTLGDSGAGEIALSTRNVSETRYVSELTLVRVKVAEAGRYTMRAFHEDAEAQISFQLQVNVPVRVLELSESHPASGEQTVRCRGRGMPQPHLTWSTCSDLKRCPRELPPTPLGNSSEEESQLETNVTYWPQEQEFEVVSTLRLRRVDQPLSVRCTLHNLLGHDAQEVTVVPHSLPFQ

mPDGFR-β on NIH3T3 cells [4] = target: T3, mPDGFR-β on NIH3T3 cells (mouse, UniProt P05622 32-1098); experiment: flow cytometry on NIH3T3 cells expressing mPDGFR-β, 100 nM, APC-anti human Cκ detection
T3 construct: whole, on cells; also called NIH3T3 cells expressing mPDGFR-β; PDGFR-β present on the cell surface

mPDGFR-β on NIH3T3 cells [5] = target: T3, mPDGFR-β on NIH3T3 cells; experiment: flow cytometry on NIH3T3 cells expressing mPDGFR-β, streptavidin-PE detection
Method: The cells were treated with APC-anti human Cκ antibody and streptavidin-PE.
After washing, it was classified and analyzed with a FACS Canto II instrument (BD Biosciences, San Jose, Calif., USA). 10,000 cells were used for each measurement, and the results were analyzed by FlowJo (Tree Star, Ashland, Oreg., USA).

Chain of hPDGFR-β on human pericyte cells (P09619 33-1106): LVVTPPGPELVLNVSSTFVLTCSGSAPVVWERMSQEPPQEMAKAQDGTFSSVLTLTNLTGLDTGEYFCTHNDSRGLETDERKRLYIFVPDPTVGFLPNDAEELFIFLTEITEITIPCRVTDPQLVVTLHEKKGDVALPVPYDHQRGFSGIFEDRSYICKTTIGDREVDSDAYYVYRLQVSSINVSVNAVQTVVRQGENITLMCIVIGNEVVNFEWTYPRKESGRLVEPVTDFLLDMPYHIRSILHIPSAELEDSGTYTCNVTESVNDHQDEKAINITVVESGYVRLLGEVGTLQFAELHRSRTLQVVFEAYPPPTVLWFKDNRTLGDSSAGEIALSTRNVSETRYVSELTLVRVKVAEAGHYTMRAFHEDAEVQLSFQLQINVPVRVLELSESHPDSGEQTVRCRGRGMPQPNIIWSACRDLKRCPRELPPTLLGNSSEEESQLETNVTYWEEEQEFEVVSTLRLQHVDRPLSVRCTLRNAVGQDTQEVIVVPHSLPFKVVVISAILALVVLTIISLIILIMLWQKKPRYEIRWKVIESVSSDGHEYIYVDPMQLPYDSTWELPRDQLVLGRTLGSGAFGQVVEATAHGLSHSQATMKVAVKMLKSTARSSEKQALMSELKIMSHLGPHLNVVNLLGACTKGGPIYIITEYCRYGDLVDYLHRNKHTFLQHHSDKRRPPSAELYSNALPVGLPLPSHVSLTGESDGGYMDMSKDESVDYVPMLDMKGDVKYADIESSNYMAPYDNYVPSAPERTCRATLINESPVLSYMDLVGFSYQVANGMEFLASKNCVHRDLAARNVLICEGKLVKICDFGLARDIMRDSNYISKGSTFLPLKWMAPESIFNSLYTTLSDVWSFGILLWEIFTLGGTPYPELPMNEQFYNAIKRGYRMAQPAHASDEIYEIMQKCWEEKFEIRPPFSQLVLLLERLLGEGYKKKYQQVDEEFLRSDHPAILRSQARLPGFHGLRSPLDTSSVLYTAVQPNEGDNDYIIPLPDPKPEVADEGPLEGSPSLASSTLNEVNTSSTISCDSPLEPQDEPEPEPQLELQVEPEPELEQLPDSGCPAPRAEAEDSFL
T3 sequence (P05622 32-1098): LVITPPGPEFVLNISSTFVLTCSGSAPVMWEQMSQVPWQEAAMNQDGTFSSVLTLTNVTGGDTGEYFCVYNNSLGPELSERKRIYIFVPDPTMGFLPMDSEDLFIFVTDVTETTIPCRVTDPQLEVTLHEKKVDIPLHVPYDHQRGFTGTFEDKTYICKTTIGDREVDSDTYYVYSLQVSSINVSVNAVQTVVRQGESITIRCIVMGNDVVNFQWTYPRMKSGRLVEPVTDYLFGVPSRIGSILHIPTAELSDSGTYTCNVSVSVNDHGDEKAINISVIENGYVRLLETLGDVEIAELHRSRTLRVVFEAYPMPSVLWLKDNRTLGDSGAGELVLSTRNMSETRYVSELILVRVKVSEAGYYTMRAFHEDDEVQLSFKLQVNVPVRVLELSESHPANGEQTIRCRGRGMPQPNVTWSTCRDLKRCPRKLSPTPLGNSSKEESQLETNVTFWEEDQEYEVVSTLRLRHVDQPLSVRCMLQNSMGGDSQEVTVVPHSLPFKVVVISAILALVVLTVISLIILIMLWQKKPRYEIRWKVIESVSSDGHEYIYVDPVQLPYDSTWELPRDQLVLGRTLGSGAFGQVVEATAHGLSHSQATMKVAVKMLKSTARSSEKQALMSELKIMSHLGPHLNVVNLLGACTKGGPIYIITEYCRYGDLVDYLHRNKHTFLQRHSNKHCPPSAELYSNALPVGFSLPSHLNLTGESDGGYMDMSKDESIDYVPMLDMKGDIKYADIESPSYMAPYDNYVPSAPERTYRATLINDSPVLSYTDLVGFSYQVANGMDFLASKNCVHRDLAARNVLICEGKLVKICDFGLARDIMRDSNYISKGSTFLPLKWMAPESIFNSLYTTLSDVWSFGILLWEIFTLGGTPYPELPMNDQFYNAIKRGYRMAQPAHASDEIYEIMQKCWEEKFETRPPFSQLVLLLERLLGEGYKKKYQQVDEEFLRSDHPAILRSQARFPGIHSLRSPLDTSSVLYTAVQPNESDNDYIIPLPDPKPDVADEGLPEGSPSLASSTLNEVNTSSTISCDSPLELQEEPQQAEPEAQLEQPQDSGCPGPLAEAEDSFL

- binding result [2]: binds
- binding result [3]: binds
- binding result (mPDGFR-β on NIH3T3 cells [4]): binds
B1: PRb-CN32 x cotinine scFv-Cκ-scFv fusion protein (bispecific antibody) (bispecific antibody)
chain: LTQPSSVSANLGETVKITCSGGSNAGSYYYGWYQQKSPGSAPVTVIYSNNQRPSDIPSRFSGSTSGSTSTLTITGVQVDDEAVYFCGSGDSSSIAAFGAGTTLTVLGQSSRSSGGGGSSGGGGSAVTLDESGGGLQTPRGTLSLVCKASGFTFSSFNMFWVRQAPGKGLEFVAGISTTGRYTGYGSAVQGRGTISRDNGQSTVRLQLNNLRAEDTGTYYCAKSAGSTYSYWDSDAGLIDAWGHGTEVIVSSTSGGGGSGGGGSGGGGSRTVAAPSVFIFPPSDEQLKSGTASVVCLLNNFYPREAKVQWKVDNALQSGNSQESVTEQDSKDSTYSLSSTLTLSKADYEKHKVYACEVTHQGLSLPVTKSFNRGESGGGGSGGGGSGGGGSDIQMTQSPSSLSASVGDRVTITCQSSQSPYSNEWLSWYQQKPGKAPKLLIYRISTLASGVPSRFSGSRSGTDFTLTISSLQPEDFATYYCAGGYNFGLFLFGQGTKVEIKGQSSRSSGGGGSSGGGGSEVQLVESGGGLVQPGGSLRLSCAASGHLRRRDWMNWVRQAPGKGLEWVAAIGRSGDTYYATWAKGRFTISADTSKNTAYLQMNSLRAEDTAVYYCSRIPYFGWNNGDIWGQGTLVTVSS
notes: also called PRb-32; PRb-CN32 bispecific scFv-Cκ-scFv
- IC50 (nM) of relative cell viability (cellular ATP), human pericyte cells, bispecific complexed with cot-duo, with hPDGF-BB [1]: 0.87 nM
- IC50 (nM) of relative cell viability (cellular ATP), human pericyte cells, bispecific complexed with cot-duo, without hPDGF-BB [1]: 0.78 nM

- binding result (mPDGFR-β on NIH3T3 cells [5]): binds
B2: mPDGF-BB-biotin (ligand, mouse, UniProt P31240 82-190, looked up)
chain: SLGSLAAAEPAVIAECKTRTEVFQISRNLIDRTNANFLVWPPCVEVQRCSGCCNNRNVQCRASQVQMRPVQVRKIEIVRKKPIFKKATVTLEDHLACKCETIVTPRPVT
modifications: biotinylated (biotin-xx microscale protein labeling kit); sites not stated
notes: also called biotin-mPDGF-BB
